Experimental findings from publication PMC9142731 (Virology Journal, 2022) are described below.

Common to all, as to conditions: both partners purified
The target in assay [1] is T1, SARS-CoV-2 nucleocapsid protein (WT), recombinant (Severe acute respiratory syndrome …, UniProt P0DTC9).
T1 construct: also called SARS-CoV-2 NP; WT NP; source: bought: Sino Biological; not shown: His tag, C-terminal, kept
The experiment in a line: SPR.

For assay [2], the target named is T2, NL63 nucleocapsid protein, recombinant (Human coronavirus NL63 (HCoV-NL63)., UniProt Q6Q1R8).
T2 construct: also called NL63 NP; source: bought: Sino Biological
The experiment in a line: ELISA.

For assay [3], the target named is T3, MERS-CoV nucleocapsid protein, recombinant (MERS-CoV, strain , UniProt K9N4V7).
T3 construct: also called MERS-CoV NP; source: bought: Sino Biological
The experiment in a line: ELISA.

The target of assay [4] is T4, HKU1 nucleocapsid protein, recombinant (Human coronavirus HKU1 (isolate N1) …, UniProt Q5MQC6).
T4 construct: also called HKU1 NP; source: bought: Sino Biological
The assay can be described thus: ELISA. For orientation: An ELISA detects its analyte on a solid surface through an enzyme-linked reagent.

The target in assay [5] is T5, OC43 nucleocapsid protein, recombinant (Human coronavirus OC43 (HCoV-OC43)., UniProt P33469).
T5 construct: also called OC43 NP; source: bought: Sino Biological
The assay can be described thus: ELISA.

The target of assay [6] is T6, SARS-CoV nucleocapsid protein, recombinant (Severe acute respiratory syndrome …, UniProt P59595).
T6 construct: also called SARS-CoV NP; source: bought: Sino Biological

Assay [7] addresses T7, 229E nucleocapsid protein, recombinant (Human coronavirus 229E (HCoV-229E)., UniProt P15130).
T7 construct: also called 229E NP; source: bought: Sino Biological

B1: P301-F7 (antibody, V domains shown)
VH: QLQLQESGPGLVKPSETLSLTCTVSGGSISSTSYYWGWIRQPPGKGLEWIGSIYYSGSTYYNPSLKSRVTISVDTSKNQFSLKLSSVTAADTAVYYCARFSLYCSSTSCYENWFDPWGQGTLVTVSS
VL: QSVLTQPPSVSAAPGQKVTISCSGSSSNIGNNYVSWYQQLPGTAPKLLIYDNNKRPSGIPDRFSGSKSGTSATLGITGLQTGDEADYYCGTWDSSLSAGQVVFGGGTKLTVL
notes: source: 293 F cells, transient transfection, purified (Protein A beads)
On to B1, for which the results for the equilibrium dissociation constant (Kd) in assay [1] and in assay [6] were 13.3 nM and 14.9 nM, respectively. Further, the binding result in assay [2], in assay [3], in assay [4], in assay [5] and in assay [7] was “no binding” each time.

The Kd is the concentration at which binding is half-saturated.
